Measurements: PMC9097884 (2022)

Molecular target: SARS-CoV-2 S1 (residues 1-682, Wuhan-Hu-1) (SARS-CoV-2 (Wuhan-Hu-1 strain), UniProt P0DTC2 14-682)
Assay: BLI

B1: 87G7 human monoclonal antibody (recombinant human IgG1/kappa) (antibody, V domains shown)
VH: EVQLLESGGGLVQPGGSLRLSCVASGFTFSSYVMSWVRQAPGKGLEWVAAISGSGGNTYYADSVKGRFTISRDNSKNTLYLQMNSLRAEDTAVYYCAKEGTYYYGSGSFWGQGTLVTVSS
VL: EIVLTQSPATLSLSPGERATLSCRASQSFHNYLAWYQQKPGRAPRLLIFDASNRATGIPARFSGSGSGTDFTLTISSLEPEDFAVYYCQQRFNWPLTFGGGTKVEIK
For B1, the Kd was 2.89 nM.
